Experimental data from patent publication EP2271364B1.

Biological target: CD20 on human lymphoma cells (Daudi, Jeko-1) (human) (UniProt P11836)
Assay: cell-based or functional assay

Chain of UniProt P11836 (P11836 whole entry): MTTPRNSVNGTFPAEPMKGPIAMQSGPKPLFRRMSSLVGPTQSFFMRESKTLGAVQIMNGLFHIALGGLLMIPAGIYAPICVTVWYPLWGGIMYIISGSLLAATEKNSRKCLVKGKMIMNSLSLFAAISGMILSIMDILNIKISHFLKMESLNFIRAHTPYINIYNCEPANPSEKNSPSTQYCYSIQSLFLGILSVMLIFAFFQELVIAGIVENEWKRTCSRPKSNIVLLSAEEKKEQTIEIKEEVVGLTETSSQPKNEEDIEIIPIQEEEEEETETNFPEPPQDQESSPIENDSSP

in vitro proliferation assay, Jeko-1 cells (MTS), high-concentration response [nM]	in vitro proliferation assay, Jeko-1 cells (MTS), low-concentration IFNα2b response [pM]	in vitro proliferation assay, Jeko-1 cells (MTS) [nM]	Substance
0.85	0.97		20-2b, a DNL conjugate of CH3-AD2-IgG-hA20 (CH3-AD2-IgG-v-mab) with four IFN-α2b-DDD2 moieties (from UniProt P01563 24-188)
		1.5	veltuzumab (humanized anti-CD20 MAb hA20) (antibody)
